Numbered stars: 1 amine (or outer) side, 2 acyl side, 3 side chain; on linkers, the order of the positions; unused ones are H or OH. Bridge positions count the residues as written; N and C are the ends. * marks the point of attachment. C20 diacid = O=C(O)CCCCCCCCCCCCCCCCCCC(=O)*; γGlu = O=C(O)[C@H](CCC(=O)[*:2])N[*:1]
B1: N^α1-[(4S)-4-carboxy-4-(19-carboxynonadecanoylamino)butanoyl]-[Glu14,Arg17,Pro21,Pro26]-h-amylin (peptide)
peptide: {C20 diacid-γGlu}-KCNTATCATQRLAEFLRHSSPNFGAPLSSTNVGSNTY-NH2
modifications: disulfide 2-7
SMILES: CC(C)C[C@H](NC(=O)[C@H](CCCNC(=N)N)NC(=O)[C@H](CCC(N)=O)NC(=O)[C@@H](NC(=O)[C@H](C)NC(=O)[C@@H]1CSSC[C@H](NC(=O)[C@H](CCCCN)NC(=O)CC[C@H](NC(=O)CCCCCCCCCCCCCCCCCCC(=O)O)C(=O)O)C(=O)N[C@@H](CC(N)=O)C(=O)N[C@@H]([C@@H](C)O)C(=O)N[C@@H](C)C(=O)N[C@@H]([C@@H](C)O)C(=O)N1)[C@@H](C)O)C(=O)N[C@@H](C)C(=O)N[C@@H](CCC(=O)O)C(=O)N[C@@H](Cc1ccccc1)C(=O)N[C@@H](CC(C)C)C(=O)N[C@@H](CCCNC(=N)N)C(=O)N[C@@H](Cc1c[nH]cn1)C(=O)N[C@@H](CO)C(=O)N[C@@H](CO)C(=O)N1CCC[C@H]1C(=O)N[C@@H](CC(N)=O)C(=O)N[C@@H](Cc1ccccc1)C(=O)NCC(=O)N[C@@H](C)C(=O)N1CCC[C@H]1C(=O)N[C@@H](CC(C)C)C(=O)N[C@@H](CO)C(=O)N[C@@H](CO)C(=O)N[C@H](C(=O)N[C@@H](CC(N)=O)C(=O)N[C@H](C(=O)NCC(=O)N[C@@H](CO)C(=O)N[C@@H](CC(N)=O)C(=O)N[C@H](C(=O)N[C@@H](Cc1ccc(O)cc1)C(N)=O)[C@@H](C)O)C(C)C)[C@@H](C)O
notes: also called compound 7
B2: N^α1-[(4S)-4-carboxy-4-(19-carboxynonadecanoylamino)butanoyl]-[Glu14,Arg17,Pro21,Pro27,Asp35,Pro37]-h-amylin (peptide)
peptide: {C20 diacid-γGlu}-KCNTATCATQRLAEFLRHSSPNFGAIPSSTNVGSDTP-NH2
modifications: disulfide 2-7
SMILES: CC[C@H](C)[C@H](NC(=O)[C@H](C)NC(=O)CNC(=O)[C@H](Cc1ccccc1)NC(=O)[C@H](CC(N)=O)NC(=O)[C@@H]1CCCN1C(=O)[C@H](CO)NC(=O)[C@H](CO)NC(=O)[C@H](Cc1c[nH]cn1)NC(=O)[C@H](CCCNC(=N)N)NC(=O)[C@H](CC(C)C)NC(=O)[C@H](Cc1ccccc1)NC(=O)[C@H](CCC(=O)O)NC(=O)[C@H](C)NC(=O)[C@H](CC(C)C)NC(=O)[C@H](CCCNC(=N)N)NC(=O)[C@H](CCC(N)=O)NC(=O)[C@@H](NC(=O)[C@H](C)NC(=O)[C@@H]1CSSC[C@H](NC(=O)[C@H](CCCCN)NC(=O)CC[C@H](NC(=O)CCCCCCCCCCCCCCCCCCC(=O)O)C(=O)O)C(=O)N[C@@H](CC(N)=O)C(=O)N[C@@H]([C@@H](C)O)C(=O)N[C@@H](C)C(=O)N[C@@H]([C@@H](C)O)C(=O)N1)[C@@H](C)O)C(=O)N1CCC[C@H]1C(=O)N[C@@H](CO)C(=O)N[C@@H](CO)C(=O)N[C@H](C(=O)N[C@@H](CC(N)=O)C(=O)N[C@H](C(=O)NCC(=O)N[C@@H](CO)C(=O)N[C@@H](CC(=O)O)C(=O)N[C@H](C(=O)N1CCC[C@H]1C(N)=O)[C@@H](C)O)C(C)C)[C@@H](C)O
notes: also called compound 11
B3: N^α1-[(4S)-4-carboxy-4-(19-carboxynonadecanoylamino)butanoyl]-[Glu14,Arg17,Pro21,Pro27,His34]-h-amylin (peptide)
peptide: {C20 diacid-γGlu}-KCNTATCATQRLAEFLRHSSPNFGAIPSSTNVGHNTY-NH2
modifications: disulfide 2-7
SMILES: CC[C@H](C)[C@H](NC(=O)[C@H](C)NC(=O)CNC(=O)[C@H](Cc1ccccc1)NC(=O)[C@H](CC(N)=O)NC(=O)[C@@H]1CCCN1C(=O)[C@H](CO)NC(=O)[C@H](CO)NC(=O)[C@H](Cc1c[nH]cn1)NC(=O)[C@H](CCCNC(=N)N)NC(=O)[C@H](CC(C)C)NC(=O)[C@H](Cc1ccccc1)NC(=O)[C@H](CCC(=O)O)NC(=O)[C@H](C)NC(=O)[C@H](CC(C)C)NC(=O)[C@H](CCCNC(=N)N)NC(=O)[C@H](CCC(N)=O)NC(=O)[C@@H](NC(=O)[C@H](C)NC(=O)[C@@H]1CSSC[C@H](NC(=O)[C@H](CCCCN)NC(=O)CC[C@H](NC(=O)CCCCCCCCCCCCCCCCCCC(=O)O)C(=O)O)C(=O)N[C@@H](CC(N)=O)C(=O)N[C@@H]([C@@H](C)O)C(=O)N[C@@H](C)C(=O)N[C@@H]([C@@H](C)O)C(=O)N1)[C@@H](C)O)C(=O)N1CCC[C@H]1C(=O)N[C@@H](CO)C(=O)N[C@@H](CO)C(=O)N[C@H](C(=O)N[C@@H](CC(N)=O)C(=O)N[C@H](C(=O)NCC(=O)N[C@@H](Cc1c[nH]cn1)C(=O)N[C@@H](CC(N)=O)C(=O)N[C@H](C(=O)N[C@@H](Cc1ccc(O)cc1)C(N)=O)[C@@H](C)O)C(C)C)[C@@H](C)O
notes: also called compound 17
B4: N^α1-[(4S)-4-carboxy-4-(19-carboxynonadecanoylamino)butanoyl]-[Glu14,Arg17,Pro21,Pro27,Arg35]-h-amylin (peptide)
peptide: {C20 diacid-γGlu}-KCNTATCATQRLAEFLRHSSPNFGAIPSSTNVGSRTY-NH2
modifications: disulfide 2-7
SMILES: CC[C@H](C)[C@H](NC(=O)[C@H](C)NC(=O)CNC(=O)[C@H](Cc1ccccc1)NC(=O)[C@H](CC(N)=O)NC(=O)[C@@H]1CCCN1C(=O)[C@H](CO)NC(=O)[C@H](CO)NC(=O)[C@H](Cc1c[nH]cn1)NC(=O)[C@H](CCCNC(=N)N)NC(=O)[C@H](CC(C)C)NC(=O)[C@H](Cc1ccccc1)NC(=O)[C@H](CCC(=O)O)NC(=O)[C@H](C)NC(=O)[C@H](CC(C)C)NC(=O)[C@H](CCCNC(=N)N)NC(=O)[C@H](CCC(N)=O)NC(=O)[C@@H](NC(=O)[C@H](C)NC(=O)[C@@H]1CSSC[C@H](NC(=O)[C@H](CCCCN)NC(=O)CC[C@H](NC(=O)CCCCCCCCCCCCCCCCCCC(=O)O)C(=O)O)C(=O)N[C@@H](CC(N)=O)C(=O)N[C@@H]([C@@H](C)O)C(=O)N[C@@H](C)C(=O)N[C@@H]([C@@H](C)O)C(=O)N1)[C@@H](C)O)C(=O)N1CCC[C@H]1C(=O)N[C@@H](CO)C(=O)N[C@@H](CO)C(=O)N[C@H](C(=O)N[C@@H](CC(N)=O)C(=O)N[C@H](C(=O)NCC(=O)N[C@@H](CO)C(=O)N[C@@H](CCCNC(=N)N)C(=O)N[C@H](C(=O)N[C@@H](Cc1ccc(O)cc1)C(N)=O)[C@@H](C)O)C(C)C)[C@@H](C)O
notes: also called compound 16
B5: N^α1-[(4S)-4-carboxy-4-(19-carboxynonadecanoylamino)butanoyl]-[Glu14,Arg17,Pro21,Pro27,His35]-h-amylin (peptide)
peptide: {C20 diacid-γGlu}-KCNTATCATQRLAEFLRHSSPNFGAIPSSTNVGSHTY-NH2
modifications: disulfide 2-7
SMILES: CC[C@H](C)[C@H](NC(=O)[C@H](C)NC(=O)CNC(=O)[C@H](Cc1ccccc1)NC(=O)[C@H](CC(N)=O)NC(=O)[C@@H]1CCCN1C(=O)[C@H](CO)NC(=O)[C@H](CO)NC(=O)[C@H](Cc1c[nH]cn1)NC(=O)[C@H](CCCNC(=N)N)NC(=O)[C@H](CC(C)C)NC(=O)[C@H](Cc1ccccc1)NC(=O)[C@H](CCC(=O)O)NC(=O)[C@H](C)NC(=O)[C@H](CC(C)C)NC(=O)[C@H](CCCNC(=N)N)NC(=O)[C@H](CCC(N)=O)NC(=O)[C@@H](NC(=O)[C@H](C)NC(=O)[C@@H]1CSSC[C@H](NC(=O)[C@H](CCCCN)NC(=O)CC[C@H](NC(=O)CCCCCCCCCCCCCCCCCCC(=O)O)C(=O)O)C(=O)N[C@@H](CC(N)=O)C(=O)N[C@@H]([C@@H](C)O)C(=O)N[C@@H](C)C(=O)N[C@@H]([C@@H](C)O)C(=O)N1)[C@@H](C)O)C(=O)N1CCC[C@H]1C(=O)N[C@@H](CO)C(=O)N[C@@H](CO)C(=O)N[C@H](C(=O)N[C@@H](CC(N)=O)C(=O)N[C@H](C(=O)NCC(=O)N[C@@H](CO)C(=O)N[C@@H](Cc1c[nH]cn1)C(=O)N[C@H](C(=O)N[C@@H](Cc1ccc(O)cc1)C(N)=O)[C@@H](C)O)C(C)C)[C@@H](C)O
notes: also called compound 18

Key:
[1] = target: T1, human amylin 3(a) receptor (human calcitonin receptor plus RAMP-3) (human, UniProt P30988 25-474; O60896 24-148, limits assumed); experiment: SPA competition binding, displacement of 125I-rat amylin from membranes of Amylin 3(a)/CRE-luc BHK cells (Assay V)
T1 construct: whole, on cells; Whole cells in the luciferase assay (Assay II a); also called hAmylin-R; human amylin receptor
T1 sequence (looked up) 1: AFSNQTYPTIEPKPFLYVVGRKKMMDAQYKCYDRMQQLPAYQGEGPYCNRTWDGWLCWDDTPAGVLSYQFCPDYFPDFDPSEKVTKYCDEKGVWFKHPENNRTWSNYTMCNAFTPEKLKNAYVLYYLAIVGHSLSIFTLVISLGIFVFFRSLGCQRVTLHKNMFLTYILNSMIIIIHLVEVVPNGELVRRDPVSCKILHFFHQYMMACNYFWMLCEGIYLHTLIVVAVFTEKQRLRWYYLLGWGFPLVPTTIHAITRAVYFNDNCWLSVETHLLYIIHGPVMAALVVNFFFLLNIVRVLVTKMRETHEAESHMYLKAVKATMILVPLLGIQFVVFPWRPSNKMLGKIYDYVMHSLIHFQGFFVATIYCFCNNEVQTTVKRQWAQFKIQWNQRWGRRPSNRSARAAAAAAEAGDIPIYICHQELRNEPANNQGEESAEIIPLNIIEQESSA
T1 sequence (looked up) 2: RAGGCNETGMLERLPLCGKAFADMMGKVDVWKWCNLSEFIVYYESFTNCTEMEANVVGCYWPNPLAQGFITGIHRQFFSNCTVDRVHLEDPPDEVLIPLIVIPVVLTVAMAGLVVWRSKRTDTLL
Description: The binding assay was performed using scintillation proximity assay (SPA) beads (RPNQ0001) from PerkinElmer and cell membranes from the Amylin 3(a)/CRE-luc cells (as described in Assay (II)) were used. Membranes were prepared in the following way; the cells were rinsed with PBS and incubated with Versene for approximately 5 min before harvesting. The cells were flushed with PBS and the cell-suspension was centrifuged for 5 min at 1000 rpm. Cells were homogenized (ultrathurrax) in a buffer containing 20 mM Na-HEPES and 10 mM EDTA (pH 7.4) and centrifuged at 20.000 rpm for 15 min. The resulting pellet was resuspended, homogenized and centrifuged (20.000 rpm, 15 min) in a buffer containing 20 mM Na-HEPES and 0.1 mM EDTA (pH 7.4, buffer 2). The resulting pellet was resuspended in buffer 2 and protein concentration was measured (BCA protein Assay, Pierce). The homogenate was kept cold during the whole procedure. The membranes were kept at −80° C. until use. The assay was performed in a 384 well Optiplate (PerkinElmer) in a total volume of 40 ul. Membranes were mixed with SPA beads. Final concentration of membranes 35 ng/μL final and SPA beads was 0.05 mg/well. Test-compounds were dissolved in DMSO and further diluted in assay buffer (50 mM Hepes, pH 7.4, 1 mM CaCl2, 5 mM MgCl₂, 0.1% OA and 0.02% Tween20). […] The final mixture was incubated with shaking at 400 rpm for 120 min at 25° C. prior to centrifugation (1500 rpm, 10 min). Samples were analyzed on TopCounter™ (Packard). The IC₅₀ was calculated using (one site binding competition analysis) GraphPad Prism5 as a measure of receptor affinity.

[2] = target: T1, human amylin 3(a) receptor (human …); experiment: cell-based or functional assay
[3] = target: T2, human calcitonin receptor (human, UniProt P30988 25-474); experiment: cell-based or functional assay
T2 sequence (looked up): T1 sequence (looked up) 1

Row | IC50 [1] [nM] | Ratio hCT/hAmylin funct. [2] | hAmylin-R funct. EC50 [2] [nM] | hCTR funct. EC50 [3] [nM] | Binder
1 | 0.674 | 4.5 | 0.255 | 1.16 | B1
2 | 0.105 | 0.9 | 0.12 | 0.112 | B2
3 | 0.878 | 8.8 | 0.268 | 2.35 | B3
4 | 0.894 | 6.1 | 0.363 | 2.21 | B4
5 | 0.554 | 4.8 | 0.154 | 0.742 | B5
